# B1: DNA primase large subunit (Homo sapiens), P49643-1 (parent)
# chain: MEFSGRKWRKLRLAGDQRNASYPHCLQFYLQPPSENISLIEFENLAIDRVKLLKSVENLGVSYVKGTEQYQSKLESELRKLKFSYRENLEDEYEPRRRDHISHFILRLAYCQSEELRRWFIQQEMDLLRFRFSILPKDKIQDFLKDSQLQFEAISDEEKTLREQEIVASSPSLSGLKLGFESIYKIPFADALDLFRGRKVYLEDGFAYVPLKDIVAIILNEFRAKLSKALALTARSLPAVQSDERLQPLLNHLSHSYTGQDYSTQGNVGKISLDQIDLLSTKSFPPCMRQLHKALRENHHLRHGGRMQYGLFLKGIGLTLEQALQFWKQEFIKGKMDPDKFDKGYSYNIRHSFGKEGKRTDYTPFSCLKIILSNPPSQGDYHGCPFRHSDPELLKQKLQSYKISPGGISQILDLVKGTHYQVACQKYFEMIHNVDDCGFSLNHPNQFFCESQRILNGGKDIKKEPIQPETPQPKPSVQKTKDASSALASLNSSLEMDMEGLEDYFSEDS
# Variants of: B1
# Details: with rfa2_human RPA2, P15927
# rfa2_human RPA2, P15927, sequence (P15927 whole entry): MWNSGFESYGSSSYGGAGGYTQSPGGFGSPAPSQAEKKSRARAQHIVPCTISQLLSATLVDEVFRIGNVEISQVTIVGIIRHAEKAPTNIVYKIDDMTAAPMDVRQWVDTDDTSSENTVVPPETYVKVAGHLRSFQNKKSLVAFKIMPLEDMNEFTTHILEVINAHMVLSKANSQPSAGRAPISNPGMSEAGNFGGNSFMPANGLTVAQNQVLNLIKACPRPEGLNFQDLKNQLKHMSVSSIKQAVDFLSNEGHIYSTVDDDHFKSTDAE
row,effect of a mutation on the interaction,Variant
1,decreasing interaction,R302E
2,decreasing interaction,H299D
3,decreasing interaction,R296E

# Variants of: B1
# Details: with rfa2_human RPA2, P15927
# Remark: another data set of the same source
row,effect of a mutation on the interaction,Variant
1,disrupting interaction,R302E

# Source: IntAct's records for PubMed 20643958
